Measured values taken from patent EP4269424A1, “NOVEL ANTIVIRAL COMPOUNDS AND USE THEREOF” (priority 2022, dated 2023).

Molecular target: G3BP1 (human), Q13283
Assay: ITC at 25 °C, peptide titrated into G3BP1

Sequence of G3BP1 (human), Q13283 (Q13283 1-139 limits assumed): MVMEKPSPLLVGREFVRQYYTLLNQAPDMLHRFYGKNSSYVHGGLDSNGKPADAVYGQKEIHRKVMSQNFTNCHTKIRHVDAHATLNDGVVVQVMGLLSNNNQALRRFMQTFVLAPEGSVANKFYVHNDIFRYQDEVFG

B1: G3BPi WT peptide without CPP (peptide)
peptide: LTFGDFDEHEVDALASGITFGDFDDW
modifications: not checked
For B1, the Kd was 3.6 µM.
